Data taken from patent publication US7494647 (Chugai, dated 2009).
Residue numbers refer to the chain shown, from its start.

B1: H chain humanized version b/L chain humanized version c antibody (antibody, V domains shown)
VH: QVQLLESGAVLARPGTSVKISCKASGFNIKDYYMHWVKQRPGQGLEWIGGNDPANGHSMYDPKFQGRVTITADTSTNTAYMELSSLRSEDTAIYYCARDSGYAMDYWGQGTLVTVSS
VL: DIQMTQSPSSLSASVGDRVTITCKASQDIKSFLSWYQQKPGKAPKLLIYYATSLADGVPSRFSGSGSGTDYTLTISSLQPEDIATYYCLQHGESPYTFGGGTKVEIK
notes: also called b-c
B2: H chain chimeric/L chain chimeric antibody (chimeric ATR-5 antibody) (antibody, V domains shown)
VH: EVQLQQSGTNLVRPGALVKLSCKGSGFNIKDYYMHWVKQRPEQGLEWIGGNDPANGHSMYDPKFQGKASITADTSSNTAYLQLSSLTSEDTAVYFCARDSGYAMDYWGQGTSVTVSS
VL: DIKMTQSPSSMYASLGERVTITCKASQDIKSFLSWYQQKPWKSPKTLIYYATSLADGVPSRFSGSGSGQDYSLTINNLESDDTATYYCLQHGESPYTFGGGTKLEIK
notes: Mouse ATR-5 V regions joined to human C regions; Both an IgG1 (N5KG1(V)) and an IgG4 (N5KG4P) kappa form were made; also called ch-ch; cha-cha
B3: H chain chimeric/L chain humanized version b antibody (antibody, IgG4, V domains shown)
VH: B2 VH
VL: B1 VL with I83F
notes: H chain V region is that of mouse ATR-5; also called ch-b
B4: H chain chimeric/L chain humanized version c antibody (antibody, IgG4, V domains shown)
VH: B2 VH
VL: B1 VL
notes: H chain V region is that of mouse ATR-5; also called ch-c
B5: H chain chimeric/L chain humanized version a antibody (antibody, IgG4, V domains shown)
VH: B2 VH
VL: B1 VL with Y71F, I83F
notes: H chain V region is that of mouse ATR-5
B6: H chain humanized version a/L chain humanized version a antibody (antibody, IgG4, V domains shown)
VH: QVQLLESGAVLARPGTSVKISCKASGFNIKDYYMHWVKQRPGQGLEWIGGNDPANGHSMYDPKFQGRAKLTAATSASIAYLEFSSLTNEDSAVYYCARDSGYAMDYWGQGTLVTVSS
VL: B1 VL with Y71F, I83F
B7: H chain humanized version i/L chain humanized version b antibody (antibody, IgG4, V domains shown)
VH: B1 VH with N77S, S84R, E89D, I93V
VL: B1 VL with I83F
B8: H chain humanized version i/L chain humanized version b2 antibody (antibody, IgG4, V domains shown)
VH: B1 VH with N77S, S84R, E89D, I93V
VL: B1 VL with G41E, L46S, I83F
notes: also called i-b2; ib2
B9: H chain humanized version b/L chain humanized version a antibody (antibody, IgG4, V domains shown)
VH: B1 VH
VL: B1 VL with Y71F, I83F
notes: also called b-a
B10: H chain humanized version i/L chain chimeric antibody (antibody, IgG4, V domains shown)
VH: B1 VH with N77S, S84R, E89D, I93V
VL: B2 VL
notes: L chain V region is that of mouse ATR-5; also called i-ch
B11: H chain humanized version j/L chain humanized version b antibody (antibody, IgG4, V domains shown)
VH: B1 VH with I70F, T76A, S84R, E89A, I93V
VL: B1 VL with I83F
notes: also called j-b
B12: H chain humanized version g/L chain humanized version b antibody (antibody, IgG4, V domains shown)
VH: B1 VH with R67K, V68A, I70L, T74E, T76S, N77S, E82Q, T91S, I93V, Y95S
VL: B1 VL with I83F
notes: also called g-b
B13: H chain humanized version j/L chain chimeric antibody (antibody, IgG4, V domains shown)
VH: B1 VH with I70F, T76A, S84R, E89A, I93V
VL: B2 VL
notes: L chain V region is that of mouse ATR-5; also called j-ch
B14: H chain humanized version e/L chain chimeric antibody (antibody, IgG4, V domains shown)
VH: B1 VH with T69S, T74E, N77K, T78I, S84N, I93V, Y95F
VL: B2 VL
notes: L chain V region is that of mouse ATR-5; also called e-ch
B15: H chain humanized version d/L chain humanized version b antibody (antibody, IgG4, V domains shown)
VH: B1 VH with T74E, N77S, T91S, I93V, Y95F
VL: B1 VL with I83F
notes: also called d-b
B16: H chain humanized version b/L chain chimeric antibody (antibody, IgG4, V domains shown)
VH: B1 VH
VL: B2 VL
notes: L chain V region is that of mouse ATR-5; also called b-ch
B17: H chain chimeric/L chain humanized version b2 antibody (antibody, IgG4, V domains shown)
VH: B2 VH
VL: B1 VL with G41E, L46S, I83F
notes: H chain V region is that of mouse ATR-5; also called ch-b2
B18: H chain chimeric/L chain humanized version b1 antibody (antibody, IgG4, V domains shown)
VH: B2 VH
VL: B1 VL with Y36F, A43S, L46T, I83F
notes: H chain V region is that of mouse ATR-5; also called ch-b1
B19: H chain humanized version d/L chain chimeric antibody (antibody, IgG4, V domains shown)
VH: B1 VH with T74E, N77S, T91S, I93V, Y95F
VL: B2 VL
notes: L chain V region is that of mouse ATR-5; also called d-ch
B20: H chain humanized version i/L chain humanized version b1 antibody (antibody, IgG4, V domains shown)
VH: B1 VH with N77S, S84R, E89D, I93V
VL: B1 VL with Y36F, A43S, L46T, I83F
notes: also called i-b1
B21: H chain humanized version c/L chain chimeric antibody (antibody, IgG4, V domains shown)
VH: QVQLLESGAVLARPGTSVKISCKASGFNIKDYYMHWVKQRPGQGLEWIGGNDPANGHSMYDPKFQGRVTMLVDTSKNQFSLRLSSVTAADTAVYYCARDSGYAMDYWGQGTLVTVSS
VL: B2 VL
notes: L chain V region is that of mouse ATR-5; also called c-ch

Molecular target: T1, human tissue factor (TF) on human bladder carcinoma cells J82 (human, UniProt P13726 33-295)
T1 construct: whole, on cells; also called the antigen; J82 cells
T1 sequence (P13726 33-295): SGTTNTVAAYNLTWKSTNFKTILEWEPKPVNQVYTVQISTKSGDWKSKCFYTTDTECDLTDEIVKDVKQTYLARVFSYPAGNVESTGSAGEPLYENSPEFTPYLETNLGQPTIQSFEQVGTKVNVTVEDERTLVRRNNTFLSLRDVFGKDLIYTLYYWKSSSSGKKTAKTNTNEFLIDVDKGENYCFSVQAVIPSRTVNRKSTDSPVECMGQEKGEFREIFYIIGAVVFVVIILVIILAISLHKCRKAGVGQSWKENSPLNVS
Assay: cell ELISA on paraformaldehyde-fixed J82 cells; AP-conjugated goat anti-human IgGγ; absorbance 405/655 nm
Description: (§1) Cell ELISA plates for measurement of antigen binding were prepared as follows. Cells used were human bladder carcinoma cells J82 (ATCC HTB-1). To 60 wells of a 96-well cell culture plate, 1 ×10^5 J82 cells were inoculated. This was cultured (RPMI1640 medium containing 10% fetal bovine serum (GIBCO)) for one day in a CO_2 incubator to allow the cells to be attached thereto. After discarding the culture liquid, each well was washed twice with 300 μl PBS. 100 μl of PBS containing 4% paraformaldehyde (hereinafter referred to as PFA/PBS) was added to each well, and placed on ice for 10 minutes to immobilize the cells.
(§2) PFA/PBS was discarded, and each well was washed twice with 300 μl of PBS, and then blocked with 250 μl of DB. The culture supernatant or purified antibody was serially diluted with DB, 100 μl of which was added to each well. After incubating at room temperature for 2 hours followed by washing with RB, 100 μl of alkaline phosphatase-conjugated goat anti-human IgGγ antibody (BioSource) diluted 1000-fold with DB was added. After incubating for 1 hour followed by washing with RB, the substrate solution was added, and then absorbance at 405/655 nm was measured using the Microplate Reader (Bio-Rad).

| EC50 (read off the curve) [mg/L] | Binder |
| --- | --- |
| ~0.05 | B1 |
| ~0.04 | B2 |

Molecular target: T1, human tissue factor (TF) on human …
Assay: as above
Remark: another data set of the same source
Description: as §1, §2

| EC50 (read off the curve) [mg/L] | Binder |
| --- | --- |
| ~0.08 | B3 |
| ~0.07 | B4 |
| ~0.08 | B2 |

Molecular target: T1, human tissue factor (TF) on human …
Assay: as above
Remark: another data set of the same source
Description: as §1, §2

| EC50 (read off the curve) [mg/L] | Binder |
| --- | --- |
| ~0.03 | B5 |
| ~0.04 | B2 |

Molecular target: T1, human tissue factor (TF) on human …
Assay: as above
Remark: another data set of the same source
Description: as §1, §2

| EC50 (read off the curve) [mg/L] | Binder |
| --- | --- |
| ~0.03 | B6 |
| ~0.05 | B2 |

Molecular target: TF/Factor VIIa complex (human, UniProt P13726 33-295; P08709 61-466)
Sequence (P13726 33-295 limits assumed, chain 1 of 2): as the sequence (P13726 33-295) above
Sequence (P08709 61-466 limits assumed, chain 2 of 2): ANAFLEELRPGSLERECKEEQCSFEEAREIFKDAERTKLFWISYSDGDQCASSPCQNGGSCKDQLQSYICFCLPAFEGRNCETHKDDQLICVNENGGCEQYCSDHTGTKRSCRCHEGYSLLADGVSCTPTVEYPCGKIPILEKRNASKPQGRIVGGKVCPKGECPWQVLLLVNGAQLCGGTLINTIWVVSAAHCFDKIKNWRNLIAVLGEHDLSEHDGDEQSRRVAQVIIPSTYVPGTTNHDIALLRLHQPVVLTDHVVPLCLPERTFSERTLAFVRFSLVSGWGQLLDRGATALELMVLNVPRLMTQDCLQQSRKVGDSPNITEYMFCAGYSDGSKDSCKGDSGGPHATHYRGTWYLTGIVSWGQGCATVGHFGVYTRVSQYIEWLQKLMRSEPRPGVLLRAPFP
Assay: cell-based or functional assay

| IC50 (read off the curve) [mg/L] | Binder |
| --- | --- |
| ~0.1 | B7 |
| ~0.06 | B8 |
| ~0.2 | B2 |

Molecular target: T1, human tissue factor (TF) on human …
Assay: cell ELISA on paraformaldehyde-fixed J82 cells; AP-conjugated goat anti-human IgGγ; absorbance 405/655 nm
Remark: another data set of the same source
Description: as §1, §2

| EC50 (read off the curve) [mg/L] | binding result | Binder |
| --- | --- | --- |
| ~0.1 |  | B9 |
|  | binds | B10 |
|  | binds | B11 |
| ~0.04 |  | B12 |
|  | binds | B13 |
| ~0.05 |  | B14 |
|  | binds | B15 |
| ~0.1 |  | B16 |
|  | binds | B17 |
|  | binds | B18 |
| ~0.07 |  | B19 |
|  | binds | B20 |
| ~0.07 |  | B2 |
| ~0.09 |  | B21 |

Molecular target: T2, soluble human TF (human TF 1-219 with the FLAG peptide linked to the C-terminal) (human, UniProt P13726 33-251)
T2 construct: Entry is the whole soluble construct (TF 1-219 followed by FLAG peptide M2); also called soluble TF; shTF
T2 sequence (P13726 other isoform, or with tags, fused parts or gaps limits assumed): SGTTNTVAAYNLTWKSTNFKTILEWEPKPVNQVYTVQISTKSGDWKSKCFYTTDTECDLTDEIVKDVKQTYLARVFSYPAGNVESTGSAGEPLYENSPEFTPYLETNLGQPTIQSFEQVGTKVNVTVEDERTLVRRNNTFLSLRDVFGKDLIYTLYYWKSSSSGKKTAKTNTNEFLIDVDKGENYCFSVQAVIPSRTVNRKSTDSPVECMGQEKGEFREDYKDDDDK
Assay: BIACORE; antibody captured on Protein G chip, soluble TF as analyte; mean ± SD, n = 3
Description: Kinetic analysis of the antigen-antibody reaction was carried out using BIACORE. The recombinant Protein G was immobilized on a sensor chip, to which the antibody was coupled. The purified recombinant TF (a soluble TF in which the FLAG peptide was tagged at 1-219) was used as the antigen, and the-soluble TF prepared at various concentrations were used as analytes. From the sensorgram obtained, kinetic parameters (dissociation rate constants kdiss, and binding rate constants kass) were calculated.
As the running buffer, the HBS-EP buffer was used. Ten μl Of […] antibody solution was injected at a flow rate of 20 μl/min to immobilize antibody. The antibody was diluted with the HBS-EP buffer. Forty μl Of the soluble human TF solution at various concentrations were injected at a flow rate of 30 μl/min thereto. In the analysis, 80 seconds for injection was set as the binding phase and then changed to the HBS-EP buffer to set the dissociation phase of 120 seconds. After the dissociation phase was over, 10 μl of 20 mM hydrochloric acid was injected to reconstitute the sensor chip. The binding, dissociation, and reconstitution were set as one cycle, and the sensorgram was obtained for each antibody. The soluble human TF solution was prepared at concentrations of 250 nM, 125 nM, 62.5 nM, 31.3 nM, 15.6 nM, 7.81 nM, and 3.91 nM using the HBS-EP buffer. As the blank, the sensorgram obtained by injecting the HBS-EP buffer used for dilution was used.
The data file of interest was read in, and the comparison of reaction patterns by superscription was made using as the baseline the sensorgram of the HBS-EP buffer. Furthermore, using an analytical application software "BIAevaluation 2.1" (Pharmacia) exclusively for BIACORE that calculates kinetic parameters (binding rate constants kass and dissociation rate constants kdiss) by curve-fitting, kinetic analysis of interaction was performed. In order to determine the binding rate constants kass, the analysis model type 4 was used (BIAevaluation 2.1 Software Hand book, A1-A5). Based on the values calculated from each flow cell, kinetic parameters for each antibody were obtained.

| Kd [nM] | koff [s⁻¹] | kon [M⁻¹ s⁻¹] | Binder |
| --- | --- | --- | --- |
| 1.39 | 0.000649 | 467000 | B7 |
| 1.17 | 0.000635 | 544000 | B8 |
| 1.09 | 0.000506 | 465000 | B2 |
